Measurements published in patent US20240218079A1, “PLASMA KALLIKREIN ANTIBODIES AND USES THEREOF” (Astria Therapeutics, Inc., priority 2021, published 2024).

Assays:
human pkal and prekal = experiment: ELISA for binding to human pkal and prekal; conditions: monoclonal IgG from hybridoma
Method: Five prekallikrein (prekal) knock-out mice were immunized via the hock route with active human plasma kallikrein (pkal, Enzyme Research Labs, South Bend, IN). When serum titers indicated a robust immune response, draining lymph nodes were harvested, and lymphocytes were fused with a myeloma line using electrofusion. Resulting hybridomas were plated in thirty 384-well plates, and screening by ELISA for binding to human pkal and prekal. Hybridoma lines with preferential binding to pkal were subcloned and expanded.
(§1) Monoclonal IgGs were retested for pkal and prekal binding by ELISA, and were screened for inhibition of pkal (1 nM enzyme) enzymatic activity in a fluorogenic peptide substrate assay (Kenniston et al. J Biol Chem. 2014 Aug. 22; 289(34):23596-608). […] This hybridoma was sequenced to determine heavy and light chain variable domains (SEQ ID NO: 1 and SEQ ID NO: 2; MAb1). […] The nucleic acid sequence of the heavy chain variable domain of MAb1 is provided as SEQ ID NO: 33 and the nucleic acid sequence of the light chain variable domain of MAb1 is provided as SEQ ID NO: 34.

pkal (1 nM enzyme) = biological target: T1, pkal (1 nM enzyme) (Homo sapiens, UniProt P03952); experiment: Inhibition of pkal enzymatic activity in a fluorogenic peptide substrate assay (screening); assay type: biochemical
T1 construct: active human plasma kallikrein (pkal, Enzyme Research Labs, South Bend, IN); purchased Enzyme Research Labs, South Bend, IN
T1 sequence (P03952 391-638 limits assumed): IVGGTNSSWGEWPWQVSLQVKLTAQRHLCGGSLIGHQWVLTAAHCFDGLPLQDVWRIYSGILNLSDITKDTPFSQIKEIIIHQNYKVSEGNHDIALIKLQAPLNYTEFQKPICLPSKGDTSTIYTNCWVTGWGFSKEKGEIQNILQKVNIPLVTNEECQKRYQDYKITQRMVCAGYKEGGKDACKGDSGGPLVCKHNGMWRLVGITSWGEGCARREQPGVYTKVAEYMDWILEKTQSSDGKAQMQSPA
T1 sequence (P03952 20-390 limits assumed): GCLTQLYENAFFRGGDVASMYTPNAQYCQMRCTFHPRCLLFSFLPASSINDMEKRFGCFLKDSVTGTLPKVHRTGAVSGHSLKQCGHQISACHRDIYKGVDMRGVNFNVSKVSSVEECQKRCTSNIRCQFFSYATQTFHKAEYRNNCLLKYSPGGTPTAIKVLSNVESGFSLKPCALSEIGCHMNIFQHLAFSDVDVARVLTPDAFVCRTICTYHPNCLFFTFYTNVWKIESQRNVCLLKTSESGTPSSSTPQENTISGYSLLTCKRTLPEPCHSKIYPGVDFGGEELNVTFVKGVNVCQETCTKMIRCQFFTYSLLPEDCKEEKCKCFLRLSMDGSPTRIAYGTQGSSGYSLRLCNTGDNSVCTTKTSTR
Method: as §1

human plasma kallikrein = biological target: T2, human plasma kallikrein (Homo sapiens, UniProt P03952); experiment: SPR binding to human plasma kallikrein; conditions: pH 7.4, 37° C.
T2 construct: active human plasma kallikrein (pkal, Enzyme Research Labs, South Bend, IN); purchased Enzyme Research Labs
T2 sequence (P03952 20-390 limits assumed): as above
T2 sequence (P03952 391-638 limits assumed): as the sequence (P03952 391-638 limits assumed) above
Method: Kinetic properties and selectivity of lead pkal antibodies were examined by SPR at 37° C. and either pH 7.4 or pH 6.0.

human FcRn = biological target: T3, human FcRn (Homo sapiens, UniProt P55899); experiment: hFcRn binding by SPR (Biacore T200)
T3 construct: purchased Sino Biological CT009-H08H
T3 sequence (P55899 24-297 limits assumed): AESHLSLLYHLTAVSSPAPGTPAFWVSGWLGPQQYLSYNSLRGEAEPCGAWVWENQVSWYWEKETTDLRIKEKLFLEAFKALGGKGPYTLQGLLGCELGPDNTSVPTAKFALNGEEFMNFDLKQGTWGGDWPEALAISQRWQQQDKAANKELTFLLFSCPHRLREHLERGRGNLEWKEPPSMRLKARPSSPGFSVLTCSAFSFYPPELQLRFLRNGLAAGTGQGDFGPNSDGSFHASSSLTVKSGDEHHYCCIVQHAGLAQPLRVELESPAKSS
T3 sequence (P61769 21-119 partner): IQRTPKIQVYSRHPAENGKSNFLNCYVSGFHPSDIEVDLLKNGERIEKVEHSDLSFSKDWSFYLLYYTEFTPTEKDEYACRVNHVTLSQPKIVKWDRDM
Method: IgG1 was used as a control antibody. The antibody samples were assessed for FcRn binding via SPR using a Biacore T200. The Biacore chip was a CMS coupled with human FcRn (Sino Biological, Cat. No. CT009-H08H). Running buffer used was PBS 0.05% P20 and pH 6 or pH 7.4.

trypsin, human pancrease = experiment: Trypsin inhibition assay; assay type: biochemical; conditions: dilution series starting at 1 μM
Method: Fluorescence intensity was measured every 5 minutes. Gabexate mesylate was used as a positive control, in a dilution series starting at 1 μM. The assay was performed in duplicate.

plasma kallikrein (pkal) = biological target: T4, plasma kallikrein (pkal) (Homo sapiens, UniProt P03952); experiment: HMWK cleavage functional assay (bradykinin release measured by ELISA); assay type: biochemical; conditions: inhibition of HMWK cleavage by pkal
T4 construct: active human plasma kallikrein (pkal, Enzyme Research Labs, South Bend, IN); purchased Enzyme Research Labs
T4 sequence (P03952 20-390 limits assumed): as the sequence (P03952 20-390 limits assumed) above
T4 sequence (P03952 391-638 limits assumed): as the sequence (P03952 391-638 limits assumed) above
Method: Specifically, the ability of each antibody to inhibit pkal cleavage of its natural substrate, High Molecular Weight Kininogen (HMWK) was observed. In these experiments 10 or 30 nM pkal was preincubated with inhibitory antibodies for 1 hr at RT, then 600 nM HMWK was added and incubated for 20 minutes and the reaction was quenched by adding 0.5 μM AEBSF. The concentration of bradykinin (BK) released from HMWK as catalyzed by pKal was measured using 1/100 dilution of the reaction product in a commercial ELISA kit (Enzo, Farmingdale, NY).
The HMWK assay parameters were physiologically relevant as the concentration of high molecular weight kininogen used is the concentration that circulates in humans and the concentration of plasma kallikrein used is in the range of what has been estimated in plasma from patients with hereditary angioedema (HAE) during an attack.
The IC90 values for the antibodies were also determined to provide an index of relative potency. In HAE, the therapeutically relevant level of inhibition to prevent HAE attacks is thought to be approximately 90% inhibition of plasma kallikrein. This corresponds to a measurement referred to as IC90, which is the concentration of an agent that results in 90% inhibitory effect.

[1] = Cynomolgus pharmacokinetic studies; assay type: in vivo, cynomolgus monkey; conditions: male cynomolgus, IV infusion 5 mg/kg
Method: These studies of these antibodies were conducted concurrently, but were independent studies rather than a head-to-head comparison. Cynomolgus monkeys, LM-naïve or naive, 3.0-4.0 kg, male, N=18, were purchased from Hainan Jingang Biotech Co. LTD. The antibodies were prepared in 20 mM Histidine, 150 mM NaCl, 0.01% Tween 80, pH 6.5. In these studies, all antibodies were administered to male cynomolgus monkeys (N=3) via IV infusion over 10 min at 5 mg/kg. Blood was collected from cephalic and saphenous veins into pre-cooled citrate acid tubes at each time point. […] Blood samples were put on wet ice and centrifuged at 4° C. to obtain plasma within 15 minutes of sample collection. Plasma samples were stored at approximately −70 C. Presence of each anti-plasma kallikrein antibody in the plasma samples was determined via ELISA using a plate coated with anti-human antibody as the capture agent and human IgG-heavy and light chain monkey-adsorbed antibody as the detection reagent (Southern Biotech, Cat #: 2049-01 and Bethyl, Cat #A80-319P). ELISA plates were read using a SpectraMax M2.

B1: MAb1: murine hybridoma lineage 24L13 anti-plasma kallikrein antibody; VH SEQ ID NO: 1, VL SEQ ID NO: 2 (antibody, V domains shown)
VH: QVQLQQSGAELVKPGASVKISCKASGYAFSSYWMNWVKQRPGEGLEWIGQIYPGDDDTNYNGKFKGKATLTVDKSSTTAYMQLSSLTSEDSAVYFCAGSLMVTTGAPFDYWGQGTTLTVSS
VL: DIVMTQSHKFMSTSVGDRVSITCKASQDVGIAVAWYQQKPGQSPKFLIYWASTRHTGVPDRFTGSGSGTDFTLTIRNVQSEDLSDYFCQQYRSYPLTFGSGTKLELK
selectivity for pkal over prekal by ELISA (human pkal and prekal): selective for pkal
inhibition of pkal enzymatic activity (in words) (pkal (1 nM enzyme)): inhibitory

B2: MAb2: optimally humanized variant VH5_VL4; VH SEQ ID NO: 3, VL SEQ ID NO: 4 (antibody, V domains shown)
VH: QVQLVQSGAEVKKPGSSVKVSCKASGYAFSSYWMNWVRQAPGQGLEWIGQIYPGDDDTNYNGKFQGRVTITVDKSTTTAYMELSSLRSEDTAVYFCAGSLMVTTGAPFDYWGQGTTVTVSS
VL: DIQMTQSPSSLSASVGDRVTITCKASQDVGIAVAWYQQKPGKAPKFLIYWASTRHTGVPDRFSGSGSGTDFTLTISSLQPEDFATYFCQQYRSYPLTFGQGTKLEIK
inhibition of pkal enzymatic activity (in words) (pkal (1 nM enzyme)): maintained both binding affinity and inhibitory potency

B3: MAb3: humanized, liability fixed VH SEQ ID NO: 5 with CDR2-optimized VL SEQ ID NO: 6 (antibody, V domains shown)
VH: QVQLVQSGAEVKKPGSSVKVSCKASGYAFSSYWMNWVRQAPGQGLEWIGQIYPGDDDTNYNAKFQGRVTITVDKSTTTAYMELSSLRSEDTAVYFCAGSLMVTTGAPFDYWGQGTTVTVSS
VL: DIQMTQSPSSLSASVGDRVTITCKASQDVGIAVAWYQQKPGKAPKFLIYYASHRGWGVPDRFSGSGSGTDFTLTISSLQPEDFATYFCQQYRSYPLTFGQGTKLEIK
inhibition of pkal enzymatic activity (in words) (pkal (1 nM enzyme)): maintained selectivity and activity

B4: MAb4-YTE: MAb4 with M252Y, S254T, T256E; heavy chain SEQ ID NO: 10, light chain SEQ ID NO: 8 (antibody)
heavy: QVQLVQSGAEVKKPGSSVKVSCKASGYAFSSYWMNWVRQAPGQGLEWIGQIYPGDDDTNYNAKFQGRVTITVDKSTTTAYMELSSLRSEDTAVYFCAGSLMVTTGAPFDYWGQGTTVTVSSASTKGPSVFPLAPSSKSTSGGTAALGCLVKDYFPEPVTVSWNSGALTSGVHTFPAVLQSSGLYSLSSVVTVPSSSLGTQTYICNVNHKPSNTKVDKRVEPKSCDKTHTCPPCPAPELLGGPSVFLFPPKPKDTLYITREPEVTCVVVDVSHEDPEVKFNWYVDGVEVHNAKTKPREEQYNSTYRVVSVLTVLHQDWLNGKEYKCKVSNKALPAPIEKTISKAKGQPREPQVYTLPPSREEMTKNQVSLTCLVKGFYPSDIAVEWESNGQPENNYKTTPPVLDSDGSFFLYSKLTVDKSRWQQGNVFSCSVMHEALHNHYTQKSLSLSPG
light: DIQMTQSPSSLSASVGDRVTITCKASQDVGIAVAWYQQKPGKAPKFLIYYASHRGWGVPDRFSGSGSGTDFTLTISSLQPEDFATYFCQQYRSYPLTFGQGTKLEIKRTVAAPSVFIFPPSDEQLKSGTASVVCLLNNFYPREAKVQWKVDNALQSGNSQESVTEQDSKDSTYSLSSTLTLSKADYEKHKVYACEVTHQGLSSPVTKSFNRGEC
Ka (human plasma kallikrein): 69000 M⁻¹ s⁻¹
Kd (human plasma kallikrein): 7.3e-05 s⁻¹
hFcRn Binding Ka (human FcRn; pH 6.0): 184000 M⁻¹ s⁻¹
hFcRn Binding Kd (human FcRn; pH 6.0): 0.0277 s⁻¹
hFcRn binding at pH 7.4 (human FcRn; pH 7.4, data not shown): no evidence of binding
inhibition of trypsin activity (trypsin, human pancrease): did not inhibit trypsin activity
Hill slope (plasma kallikrein (pkal)): ~2
CI (mL/day/kg) (Mean ± SD) [1]: 1.44 ± 0.33 mL/day/kg
T ½ (days) (Mean ± SD) [1]: 33.6 ± 8.3 days
Vss (mL/kg) (Mean ± SD) [1]: 66.8 ± 6.1 mL/kg
terminal half-life [1]: approximately 34 days
